Experiment in all cases: Kinase Profiling Assay
What all share (format): biochemical
Common to all, as to conditions: 100 μM

For assay [1], the target named is CHK2(h) (Homo sapiens, UniProt O96017).
For assay [2], the target named is cKit(D816H)(h) (Homo sapiens, UniProt P10721, D816H).
Assay [3] concerns the target ErbB4(h) (Homo sapiens, UniProt Q15303).
For assay [4], the target named is T1, Mer(h) (Homo sapiens, UniProt Q12866).
T1 sequence (Q12866 21-999): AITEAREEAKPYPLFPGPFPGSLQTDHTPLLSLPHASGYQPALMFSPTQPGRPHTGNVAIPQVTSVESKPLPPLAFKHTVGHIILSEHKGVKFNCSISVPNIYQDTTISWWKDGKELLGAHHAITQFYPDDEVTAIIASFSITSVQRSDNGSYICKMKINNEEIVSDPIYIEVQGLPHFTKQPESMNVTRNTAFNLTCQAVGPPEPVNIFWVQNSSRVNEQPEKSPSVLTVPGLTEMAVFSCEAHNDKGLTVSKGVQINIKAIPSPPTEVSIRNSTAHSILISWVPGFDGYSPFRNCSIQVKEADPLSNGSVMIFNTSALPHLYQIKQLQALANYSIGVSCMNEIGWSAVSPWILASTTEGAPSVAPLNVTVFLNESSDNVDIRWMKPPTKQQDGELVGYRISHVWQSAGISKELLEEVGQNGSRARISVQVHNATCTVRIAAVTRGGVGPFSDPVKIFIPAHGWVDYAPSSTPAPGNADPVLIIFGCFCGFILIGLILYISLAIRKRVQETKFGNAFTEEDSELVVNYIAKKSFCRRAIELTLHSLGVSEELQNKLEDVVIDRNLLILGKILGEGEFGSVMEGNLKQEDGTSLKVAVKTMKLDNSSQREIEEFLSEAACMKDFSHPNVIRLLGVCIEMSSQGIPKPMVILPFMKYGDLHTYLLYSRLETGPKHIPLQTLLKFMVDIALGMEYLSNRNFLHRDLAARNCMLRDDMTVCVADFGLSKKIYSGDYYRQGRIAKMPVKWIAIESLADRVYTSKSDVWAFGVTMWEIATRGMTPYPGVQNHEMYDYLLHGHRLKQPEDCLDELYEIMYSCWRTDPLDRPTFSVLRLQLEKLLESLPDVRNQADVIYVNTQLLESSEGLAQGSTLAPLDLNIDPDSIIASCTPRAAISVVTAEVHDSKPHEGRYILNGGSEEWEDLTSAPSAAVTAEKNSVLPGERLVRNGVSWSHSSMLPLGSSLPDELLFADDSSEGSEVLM

Assay [5] deals with Met(M1268T)(h) (Homo sapiens, UniProt P08581, M1250T).
The target of assay [6] is Ron(h) (Homo sapiens, UniProt Q04912).
For assay [7], the target named is T2, Rse(h) (Homo sapiens, UniProt Q06418).
T2 sequence (Q06418 41-890): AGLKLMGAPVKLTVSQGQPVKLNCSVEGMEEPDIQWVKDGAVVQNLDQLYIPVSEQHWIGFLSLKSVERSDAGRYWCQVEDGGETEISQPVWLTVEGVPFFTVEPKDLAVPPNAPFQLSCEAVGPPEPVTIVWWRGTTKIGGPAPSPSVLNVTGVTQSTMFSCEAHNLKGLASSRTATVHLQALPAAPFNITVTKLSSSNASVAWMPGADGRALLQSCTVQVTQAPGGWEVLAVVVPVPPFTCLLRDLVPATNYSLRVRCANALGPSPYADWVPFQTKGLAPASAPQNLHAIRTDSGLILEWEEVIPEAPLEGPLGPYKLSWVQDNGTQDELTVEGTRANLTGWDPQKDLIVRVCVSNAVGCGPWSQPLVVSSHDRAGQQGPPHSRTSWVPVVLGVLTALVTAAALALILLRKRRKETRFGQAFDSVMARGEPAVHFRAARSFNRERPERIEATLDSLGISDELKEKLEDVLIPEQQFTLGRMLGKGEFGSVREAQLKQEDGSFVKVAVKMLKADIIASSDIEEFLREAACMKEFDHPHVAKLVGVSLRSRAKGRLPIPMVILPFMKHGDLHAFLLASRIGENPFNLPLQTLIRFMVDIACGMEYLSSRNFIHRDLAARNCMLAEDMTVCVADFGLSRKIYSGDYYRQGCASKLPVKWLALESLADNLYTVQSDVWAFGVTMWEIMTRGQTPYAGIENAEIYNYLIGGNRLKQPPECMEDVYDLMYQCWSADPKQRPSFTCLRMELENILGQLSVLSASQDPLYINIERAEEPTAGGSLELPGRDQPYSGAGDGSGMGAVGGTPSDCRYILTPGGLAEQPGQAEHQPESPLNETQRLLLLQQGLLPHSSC

The target in assay [8] is SRPK1(h) (Homo sapiens, UniProt Q96SB4).
Assay [9] addresses Syk(h) (Homo sapiens, UniProt P43405).

Chain of SRPK1(h) (Q96SB4 whole entry): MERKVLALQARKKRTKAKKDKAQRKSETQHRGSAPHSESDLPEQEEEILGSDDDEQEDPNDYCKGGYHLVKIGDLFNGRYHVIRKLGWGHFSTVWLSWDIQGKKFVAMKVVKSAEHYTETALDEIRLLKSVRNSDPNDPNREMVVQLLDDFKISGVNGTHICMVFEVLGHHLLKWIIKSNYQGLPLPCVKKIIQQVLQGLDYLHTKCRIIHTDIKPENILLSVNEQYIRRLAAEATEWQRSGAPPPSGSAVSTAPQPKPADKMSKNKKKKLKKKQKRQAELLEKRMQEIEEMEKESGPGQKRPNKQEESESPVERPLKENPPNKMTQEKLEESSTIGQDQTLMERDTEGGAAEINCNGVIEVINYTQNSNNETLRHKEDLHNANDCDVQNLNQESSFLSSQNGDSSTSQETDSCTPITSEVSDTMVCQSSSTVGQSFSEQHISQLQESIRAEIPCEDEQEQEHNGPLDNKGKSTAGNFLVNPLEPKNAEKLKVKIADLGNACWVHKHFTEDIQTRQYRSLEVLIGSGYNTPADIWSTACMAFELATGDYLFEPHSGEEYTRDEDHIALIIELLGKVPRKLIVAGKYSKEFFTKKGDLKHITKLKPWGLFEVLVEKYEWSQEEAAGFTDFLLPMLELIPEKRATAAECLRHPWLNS
Chain of CHK2(h) (O96017 whole entry): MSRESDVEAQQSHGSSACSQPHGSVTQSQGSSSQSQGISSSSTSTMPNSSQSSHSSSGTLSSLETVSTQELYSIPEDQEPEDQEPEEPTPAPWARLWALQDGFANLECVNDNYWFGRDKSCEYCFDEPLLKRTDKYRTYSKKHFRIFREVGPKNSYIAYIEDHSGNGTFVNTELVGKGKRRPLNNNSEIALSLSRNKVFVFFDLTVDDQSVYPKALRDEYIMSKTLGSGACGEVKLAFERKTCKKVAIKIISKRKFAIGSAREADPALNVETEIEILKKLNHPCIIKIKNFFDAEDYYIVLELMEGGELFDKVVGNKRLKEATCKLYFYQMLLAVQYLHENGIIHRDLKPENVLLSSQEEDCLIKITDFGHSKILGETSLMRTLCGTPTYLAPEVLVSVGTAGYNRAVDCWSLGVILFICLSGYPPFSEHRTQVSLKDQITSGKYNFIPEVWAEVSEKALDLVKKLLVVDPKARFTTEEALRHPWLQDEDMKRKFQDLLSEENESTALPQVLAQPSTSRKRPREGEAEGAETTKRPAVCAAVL
Chain of ErbB4(h) (Q15303 26-1308): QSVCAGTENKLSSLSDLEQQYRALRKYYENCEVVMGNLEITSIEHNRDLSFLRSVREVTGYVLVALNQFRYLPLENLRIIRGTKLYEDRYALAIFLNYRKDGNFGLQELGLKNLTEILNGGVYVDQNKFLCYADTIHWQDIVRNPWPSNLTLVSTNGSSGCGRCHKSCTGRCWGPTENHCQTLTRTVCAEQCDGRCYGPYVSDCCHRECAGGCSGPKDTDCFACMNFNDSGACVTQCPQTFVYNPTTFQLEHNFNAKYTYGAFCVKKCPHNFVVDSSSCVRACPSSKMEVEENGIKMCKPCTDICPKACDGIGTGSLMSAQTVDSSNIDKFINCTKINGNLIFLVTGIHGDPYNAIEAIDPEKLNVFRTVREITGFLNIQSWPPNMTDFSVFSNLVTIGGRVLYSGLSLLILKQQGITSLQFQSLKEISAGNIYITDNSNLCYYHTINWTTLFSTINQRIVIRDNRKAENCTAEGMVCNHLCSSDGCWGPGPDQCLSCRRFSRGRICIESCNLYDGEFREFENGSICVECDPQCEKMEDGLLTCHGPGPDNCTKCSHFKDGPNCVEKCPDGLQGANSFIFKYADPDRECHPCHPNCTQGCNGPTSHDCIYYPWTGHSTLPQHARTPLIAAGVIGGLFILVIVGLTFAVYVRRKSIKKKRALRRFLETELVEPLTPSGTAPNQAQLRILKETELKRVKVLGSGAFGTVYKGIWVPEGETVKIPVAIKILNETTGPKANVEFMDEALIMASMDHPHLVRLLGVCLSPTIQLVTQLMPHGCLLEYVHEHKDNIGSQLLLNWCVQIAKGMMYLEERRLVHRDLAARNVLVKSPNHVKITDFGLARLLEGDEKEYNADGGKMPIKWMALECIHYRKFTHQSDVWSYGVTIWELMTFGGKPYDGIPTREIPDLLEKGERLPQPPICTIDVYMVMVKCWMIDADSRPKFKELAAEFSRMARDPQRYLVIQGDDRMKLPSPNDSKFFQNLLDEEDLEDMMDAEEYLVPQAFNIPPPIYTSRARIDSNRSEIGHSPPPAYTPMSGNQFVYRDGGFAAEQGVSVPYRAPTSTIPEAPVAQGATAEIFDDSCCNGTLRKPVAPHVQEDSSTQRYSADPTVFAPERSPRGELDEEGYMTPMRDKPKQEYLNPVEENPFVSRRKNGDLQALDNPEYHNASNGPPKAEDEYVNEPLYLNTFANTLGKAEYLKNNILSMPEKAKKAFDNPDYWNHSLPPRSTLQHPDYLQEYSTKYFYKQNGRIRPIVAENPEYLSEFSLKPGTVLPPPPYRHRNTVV

With FAKLAARLYRKALARQLGVAA [MMI-0300], the “% activity” value is 66% in assay [1]; 126% in assay [2]; 40% in assay [3]; 52% in assay [4]; 255% in assay [5]; 93% in [6]. In addition, the “% activity” value came to 88% in [7], 90% in [8] and 24% in assay [9].
As to YARAAARQARAKALNRQLGVA [MMI-0200], the “% activity” value is 82% in assay [3]; 90% in assay [4]; 143% in assay [5]; 120% in [6]; 88% in assay [7]; 93% in [8]. Moreover, the “% activity” value in [9] was determined as 36%.
As to KAFAKLAARLYRKALARQLGVAA [MMI-0400], the “% activity” value was determined as 54% in assay [1]; 143% in assay [2]; 0% in assay [3]; 50% in assay [4]; 265% in [5]; 79% in [6]. In addition, the “% activity” value in assay [7] is 89%; in assay [8], 96%; in assay [9] it was 9%.
As to HRRIKAWLKKIKALARQLGVAA [MMI-0500], the “% activity” value in assay [1] was 13%; in assay [2], 194%; in assay [3], 2%; in assay [4] it was 17%; in [5], 239%; in [6] it was 46%. Also, the “% activity” value in assay [7] was determined as 63%; in assay [8] it was 80%; in [9], 5%.

Source of the values: patent US20190134153A1, “IMMUNOMODULATORY EFFECT OF INHALED KINASE INHIBITOR PEPTIDES IN LUNG” (MOERAE MATRIX, INC., priority 2017, published 2019).
